In patent US12303551B2, “Cellular immunotherapy compositions and uses thereof” (CERO THERPEUTICS HOLDINGS, INC., priority 2018, dated 2025):

Assays:
[1] = tested on: SCC152 target cells; assay: Phagocytosis of SCC152 by CD4+ T cell/CER, fluorescence microscopy with hybrid capture; assay type: cell-based; conditions: TRAF-domain CERs, 4 hours, 1:1:0.5 (CD8:CD4:target cell); versus CD4+ control + CD8+/E7 TCR
Method: (§1) FIG. 28 is a bar graph representing quantification of CD4+ T cell-CER mediated phagocytosis of SCC152 target cells. Results calculated as ((number of phagocytic target events)/(total number of effectors))*100 from 3×3 40× images, 4 hours after initiation of co-culture assay. CD8+ T cells transduced with HPV16 E7 TCR and CD4+ T cells transduced with selected CERs (CER5, CER17, CER19, CER21, CER23, CER26, CER27, CER103b, CER104, CER105, CER106, or CER116) were co-cultured with SCC152 squamous head and neck carcinoma target cells at a 1:1:0.5 ratio for 4 hours and imaged.
as §1, with “29” for “28”, “(median area ratio” for “((number”, “of” for “of phagocytic”, “events in effector cells*% phagocytosis)” for “events)/(total number of effectors))*100”
(§2) FIG. 55 is a bar graph representing quantification of CD4+ T cell-CER mediated phagocytosis of SCC152 target cells. Percent phagocytosis was calculated as ((number of phagocytic target events)/(total number of effector cells))*100. These numbers were calculated from 3×3 images captured by Keyence BZ-X710 fluorescence microscope at 40× resolution, 4 hours after initiation of co-culture assay. CD8+ T cells transduced with HPV16 E7 TCR and CD4+ T cells transduced with a selected CER (CER29, CER30, CER110, CER112, CER113, CER114, CER116, or CER117) were co-cultured with SCC152 target cells at a 1:1:0.5 ratio (CD8:CD4:target cell) for 4 hours and imaged.
as §2, with “56” for “55”, “Adjusted phagocytic index” for “Percent phagocytosis”, “(median area ratio” for “((number”, “of” for “of phagocytic”, “events in” for “events)/(total number of”, “cells*% phagocytosis).” for “cells))*100.”
Phagocytic activity of CD4+ T cell/CER+CD8+ T cell/HPV16 E7 TCR combinations co-cultured with SCC152 cells was visualized and quantified using KEYENCE BZ-X710 fluorescence microscope, […] and hybrid capture software.

[2] = tested on: SCC152 cells; assay: Elimination of GFP-expressing SCC152 target cells over time (quantification and time lapse imaging); assay type: cell-based
Method: Target SCC152 cells were co-cultured with CD8+ T cells transduced with HPV E7 TCR+CD4+ T cells transduced with a selected CER, or controls (CD8+ T cell transduced with HPV E7 TCR+CD4+ transduced control) at a 1:1:1 ratio. The number of target cells were quantified using imaging software. 0 hours, 24 hours, and 48 hours are shown from left to right.
(§3) FIG. 21 is time lapse imaging from 96-well co-culture experiments comprising CD8+ T cells transduced with HPV16 E7 TCR+CD4+ T cells transduced with CER5, CER17 or CER19 incubated with SCC152 target cells at a 1:1:1 ratio. SCC152 HPV+ target cells were quantified using automated cell counting software.
as §3, with “22” for “21”, “CER21, CER23” for “CER5, CER17”, “CER26” for “CER19”
as §3, with “23” for “21”, “CER103b, CER104” for “CER5, CER17”, “CER105” for “CER19”
as §3, with “24” for “21”, “CER106, CER116” for “CER5, CER17”, “CER27” for “CER19”
FIG. 57 is a bar graph showing quantification of loss of SCC152 HPV16+ target cells over time during co-culture assays. SCC152 cells were transduced with green fluorescent protein (GFP) and co-cultured with CD8+ T cells transduced with HPV16 E7 TCR and CD4+ T cells transduced with a selected CER (CER29, CER30, CER110, CER112, CER113, CER114, CER116, or CER117) or a CD4+ T cell control at a 1:1:1 ratio (CD8:CD4:target cell). The number of target cells was quantified at various time points during co-culture (0 hrs, 12 hrs, 24 hrs, and 36 hrs) using fluorescence microscopy and imaging software.
(§4) FIG. 58 are fluorescence micrograph images of the co-culture assay described in FIG. 57, showing clearance of the SCC152 cells (pink) as co-culture with CD8+ T cells transduced with HPV16 E7 TCR and CD4+ T cells transduced with a selected CER (columns from left to right: control, CER29, CER30, CER110, or CER112) progresses (rows from top to bottom: 0 hrs, 12 hrs, 24 hrs, and 36 hrs).
as §4, with “59” for “58”, “CER113, CER114, CER116,” for “CER29, CER30, CER110,”, “CER117)” for “CER112)”
(§5) Elimination of target SCC152 cells was also detected by quantifying green fluorescent protein expression by SCC152 cells over time (0 hr, 24 hr, 48 hr) during co-incubation with CD8+ T cells transduced with HPV16 E7 specific TCR+ CD4 T cells transduced with selected CER (see, FIG. 20).
as §5, with “hr, 12 hr,” for “hr,”, “hr, 36” for “hr, 48”, “TCR+ CD4+” for “TCR+ CD4”, “CER (CER29, CER30, CER110, CER112, CER113, CER114, CER116, or CER117)” for “CER”, “FIG. 57).” for “FIG. 20).”

| Molecule | engulfment of SCC152 target cells (percent phagocytosis, adjusted phagocytic index) [1] | elimination of SCC152 cells, time lapse imaging ([2]; 0 to 36 hrs, compared to the control) | elimination of SCC152 cells (GFP quantification) ([2]; by 36 hrs, 1:1:1 ratio (CD8:CD4:target cell), compared to control) |
| --- | --- | --- | --- |
| CER29: Chimeric engulfment receptor: Tim4 binding, Tim4 transmembrane, TRAF6 signaling; SEQ ID NO: 99 (protein, CER29, amino acids 1-22 are signal peptide) MSKGLLLLWLVTELWWLYLTPAASEDTIIGFLGQPVTLPCHYLSWSQSRNSMCWGKGSCPNSKCNAELLRTDGTRIISRKSTKYTLLGKVQFGEVSLTISNTNRGDSGVYCCRIEVPGWFNDVKKNVRLELRRATTTKKPTTTTRPTTTPYVTTTTPELLPTTVMTTSVLPTTTPPQTLATTAFSTAVTTCPSTTPGSFSQETTKGSAFTTESETLPASNHSQRSMMTISTDIAVLRPTGSNPGILPSTSQLTTQKTTLTTSESLQKTTKSHQINSRQTILIIACCVGFVLMVLLFLAFLMSLLNCENSCGSSQSESDCCVAMASSCSAVTKDDSVGGTASTGNLSSSFMEEIQGYDVEFDPPLESKYECPICLMALREAVQTPCGHRFCKACIIKSIRDAGHKCPVDNEILLENQLFPDNFAKREILSLMVKCPNEGCLHKMELRHLEDHQAHCEFALMDCPQCQRPFQKFHINIHILKDCPRRQVSCDNCAASMAFEDKEIHDQNCPLANVICEYCNTILIREQMPNHYDLDCPTAPIPCTFSTFGCHEKMQRNHLARHLQENTQSHMRMLA | enhanced engulfment | – | – |
| CER30: Chimeric engulfment receptor: Tim4 binding, Tim4 transmembrane, TRAF2 signaling; SEQ ID NO: 120 (protein, CER30, amino acids 1-22 are signal peptide) MSKGLLLLWLVTELWWLYLTPAASEDTIIGFLGQPVTLPCHYLSWSQSRNSMCWGKGSCPNSKCNAELLRTDGTRIISRKSTKYTLLGKVQFGEVSLTISNTNRGDSGVYCCRIEVPGWFNDVKKNVRLELRRATTTKKPTTTTRPTTTPYVTTTTPELLPTTVMTTSVLPTTTPPQTLATTAFSTAVTTCPSTTPGSFSQETTKGSAFTTESETLPASNHSQRSMMTISTDIAVLRPTGSNPGILPSTSQLTTQKTTLTTSESLQKTTKSHQINSRQTILIIACCVGFVLMVLLFLAFLMAAASVTPPGSLELLQPGFSKTLLGTKLEAKYLCSACRNVLRRPFQAQCGHRYCSFCLASILSSGPQNCAACVHEGIYEEGISILESSSAFPDNAARREVESLPAVCPSDGCTWKGTLKEYESCHEGRCPLMLTECPACKGLVRLGEKERHLEHECPERSLSCRHCRAPCCGADVKAHHEVCPKFPLTCDGCGKKKIPREKFQDHVKTCGKCRVPCRFHAIGCLETVEGEKQQEHEVQWLREHLAMLLSSVLEAKPLLGDQSHAGSELLQRCESLEKKTATFENIVCVLNREVERVAMTAEAC | enhanced engulfment | enhanced elimination of SCC152 cells | nearly complete elimination |
| CER110: Chimeric engulfment receptor: Tim4 binding, Tim4 transmembrane, TRAF6 and DAP12 signaling; SEQ ID NO: 145 (protein, CER110, amino acids 1-22 are signal peptide) MSKGLLLLWLVTELWWLYLTPAASEDTIIGFLGQPVTLPCHYLSWSQSRNSMCWGKGSCPNSKCNAELLRTDGTRIISRKSTKYTLLGKVQFGEVSLTISNTNRGDSGVYCCRIEVPGWFNDVKKNVRLELRRATTTKKPTTTTRPTTTPYVTTTTPELLPTTVMTTSVLPTTTPPQTLATTAFSTAVTTCPSTTPGSFSQETTKGSAFTTESETLPASNHSQRSMMTISTDIAVLRPTGSNPGILPSTSQLTTQKTTLTTSESLQKTTKSHQINSRQTILIIACCVGFVLMVLLFLAFLMSLLNCENSCGSSQSESDCCVAMASSCSAVTKDDSVGGTASTGNLSSSFMEEIQGYDVEFDPPLESKYECPICLMALREAVQTPCGHRFCKACIIKSIRDAGHKCPVDNEILLENQLFPDNFAKREILSLMVKCPNEGCLHKMELRHLEDHQAHCEFALMDCPQCQRPFQKFHINIHILKDCPRRQVSCDNCAASMAFEDKEIHDQNCPLANVICEYCNTILIREQMPNHYDLDCPTAPIPCTFSTFGCHEKMQRNHLARHLQENTQSHMRMLAYFLGRLVPRGRGAAEAATRKQRITETESPYQELQGQRSDVYSDLNTQRPYYK | enhanced engulfment | – | – |
